“Also recorded” adds a separate entry of the source.
Legend:
[1] = tested on: CD31^hiEMCN^hi endothelium; experiment: Flow cytometry of skeletal CD31hiEMCNhi endothelium in femurs after IV injection; assay type: in vivo, mouse; settings: 8-week-old B6 mice, twice weekly IV 1 mg/kg, 21 days, femur; 1 mg/kg
Protocol: Femur and tibia were dissected from mutant mice and control groups after removing surrounding connective tissues. The metaphysis region and diaphysis regions of bone was crushed in Hanks Balanced Salt Solution (Life Technologies) containing 10 mM HOPES (pH 7.2) (CellGro) and enzymatically digested with 2.5 mg/mL Collagenase A (Roche) and 1 unit/mL Dispase II (Roche) for 15 minutes at 37° C. under gentle agitation. The resulting cell suspensions were filtered (40 μm), washed using PBS (pH 7.2) containing 0.5% BSA (Fraction V) and 2 mM EDTA. After washing, equal numbers of cells per mouse were blocked with Purified Rat Anti-Mouse CD16/CD32 (BD Biosciences) for 30 min on ice, then stained with APC-conjugated EMCN antibody (ebioscience 50-5851-80), PE-conjugated CD31 (ebioscience 12-0311-81). FITC-conjugated CD45 (Tonbo 35-0451), APC/Cy7-conjugated Ter119 (Biolegend 116223) and PerCP-Cy5.5-conjugated CD146 (BD Biosciences 562231) for 45 min on ice. After washing, cells were resuspended in PBS (pH 7.2) with 2 mM EDTA and 1 μg/mL 4-6,Diamidino-2-Phenylindole (DAPI) (live/dead exclusion) for analysis on an LSRII flow cytometer system (BD Biosciences) cytometer and analyzed using FlowJo software (TreeStar). Cell sorting was performed with a FACS Aria II SORP cell sorter (Becton Dickinson) at Weill Cornell Medical College, with exclusion of DAPI^+ cells and doublets. […]

[2] = tested on: non-skeletal vasculature; settings: mouse, in vivo, iv
[3] = tested on: murine ovariectomy (OVX) model of postmenopausal osteoporosis; experiment: Ovariectomy (OVX) induced bone loss, therapeutic model after osteopenia onset; assay type: in vivo, mouse
[4] = tested on: murine ovariectomy (OVX) model of postmenopausal osteoporosis; experiment: Ovariectomy (OVX) induced bone loss, prophylactic model; assay type: in vivo, mouse
Protocol: Micro-CT (μCT) analysis was conducted on a Scanco Medical μCT 35 system at the Citigroup Biomedical Imaging Core using the previously described parameters. (Shim et al. 2013). μCT analysis was performed by an investigator blinded to the genotypes of the animals under analysis.
For histomorphometry, mice were injected with calcein (25 mg/kg, Sigma), and undecalcified sections of the lumbar vertebrae were stained using von Kossa and TRAP as described by Fukuda et al. (2013). Static and dynamic histomorphometric analysis was performed with using the Osteomeasure Analysis System (Osteometrics) following standard nomenclature as described (Dempster et al. 2013). Bone volume/total volume (BV/TV), bone formation rate/bone surface (BFR/BS, μm^3 […] yr^−1), mineral apposition rate (MM, um Day^−1), osteoblast surface/bone surface (Ob.S/BS, %) and osteoclast number/bone perimeter (No. OC/Bpm) were analyzed.
For the prophylactic model, 12-week-old female mice (JAX) were anesthetized and bilaterally ovariectomized or sham operated. Ovariectomized mice were given twice weekly intravenous injections of 1 mg per kg body weight of SLITS or vehicle or daily subcutaneous (sc) injections of 80 ug/kg PTH (1-34) for 6 weeks starting 2 weeks after ovariectomy. […] All mice were then randomly assigned to one of four groups: Sham, OVX+vehicle, OVX+SLITS and OVX+PTH. Three days after the last injection, all of the mice were euthanized and subjected to bone analysis as described earlier.

[5] = tested on: human mesenchymal stromal cells; experiment: ALP activity assay after 6 days of osteogenic culture; assay type: cell-based; settings: different doses
Protocol: Primary calvarial osteoblasts were isolated from five-day-old mice by triple collagenase/dispase II digestion. Cells were cultured in α-MEM medium (Gibco) containing 10% FBS, 2 mM L-glutamine, 1% penicillin/streptomycin, 1% Hepes, and 1% nonessential amino acids and differentiated with ascorbic acid and β-glycerophosphate. Conditioned medium was collected from culture of primary osteoblasts and stocked at −80° C. hMSCs were cultured and differentiated into osteoblasts using a commercial kit (Cyagen). All cells were routinely tested to be mycoplasma negative.
For staining of extracellular matrix mineralization, cells were fixed with 10% neutral buffered formalin and stained with alizarin red. Mineralization activity was measured by colorimetric analysis. For alkaline phosphatase (ALP) activity, osteoblasts were fixed with 10% neutral formalin buffer and stained with the solution containing Fast Blue and Naphthol (Sigma-Aldrich). Alternatively, osteoblasts were incubated with 10-fold diluted Alamar Blue solution, washed, and incubated with a solution containing 6.5 mM Na2CO3, 18.5 mM NaHCO3, 2 mM MgCl2, and phosphatase substrate (Sigma-Aldrich). ALP activity was measured by a spectrophotometer (Thermo).

[6] = tested on: bone marrow derived EPOCs; experiment: Alamar blue based proliferation assay; assay type: cell-based, mouse
Protocol: Mouse bone marrow derived late-stage endothelial progenitor outgrowth cells (EPOCs) were obtained from BioChain (7030031) and cultured in growth medium (BioChain Z7030035) as described previously (Xie et al. 2014). Endothelial cell migration assay was set up in Trans well-24 well plates with 8-um pore filters. Briefly, 1×10^5 cells/well after 1-hour serum starvation were seeded in the upper chamber, then incubated with conditioned medium from osteoblasts and control in the lower chambers for a further 3 h. The cells in the upper surface of each filter were removed with cotton swabs. The cells that migrated into the lower surface were fixed with 4% PFA for 30 min and then stained with crystal violet. The cell numbers were quantified by counting a centered microscope field per each filter (5 wells for each condition). […] The width of the wound area was quantitatively evaluated using ImageJ (see website at rsb.info.uih.gov/ij/download.html). […] At 0, 24, 48 hours after seeding, cells were incubated with 10-fold diluted Alamar Blue solution (Thermo Fisher) and the supernatant was evaluated with a spectrophotometer (Thermo) (5 wells for each condition). […] Alter 5 hours incubation at 37° C., the number of tube branches each well was observed and quantified by counting four random fields per well with microscopy (5 wells for each condition).

[7] = treatment initiated eight weeks after OVX
[8] = treatment initiated two weeks after OVX

B1: SLIT3: SLIT3 recombinant protein (R&D); secreted ligand of ROBO receptors (protein, UniProt O75094 34-1523, looked up)
Slit homolog 3 protein: CPTKCTCSAASVDCHGLGLRAVPRGIPRNAERLDLDRNNITRITKMDFAGLKNLRVLHLEDNQVSVIERGAFQDLKQLERLRLNKNKLQVLPELLFQSTPKLTRLDLSENQIQGIPRKAFRGITDVKNLQLDNNHISCIEDGAFRALRDLEILTLNNNNISRILVTSFNHMPKIRTLRLHSNHLYCDCHLAWLSDWLRQRRTVGQFTLCMAPVHLRGFNVADVQKKEYVCPAPHSEPPSCNANSISCPSPCTCSNNIVDCRGKGLMEIPANLPEGIVEIRLEQNSIKAIPAGAFTQYKKLKRIDISKNQISDIAPDAFQGLKSLTSLVLYGNKITEIVKGLFDGLVSLQLLLLNANKINCLRVNTFQDLQNLNLLSLYDNKLQTISKGLFAPLQSIQTLHLAQNPFVCDCHLKWLADYLQDNPIETSGARCSSPRRLANKRISQIKSKKFRCSGSEDYRSRFSSECFMDLVCPEKCRCEGTIVDCSNQKLVRIPSHLPEYVTDLRLNDNEVSVLEATGIFKKLPNLRKINLSNNKIKEVREGAFDGAASVQELMLTGNQLETVHGRVFRGLSGLKTLMLRSNLIGCVSNDTFAGLSSVRLLSLYDNRITTITPGAFTTLVSLSTINLLSNPFNCNCHLAWLGKWLRKRRIVSGNPRCQKPFFLKEIPIQDVAIQDFTCDGNEESSCQLSPRCPEQCTCMETVVRCSNKGLRALPRGMPKDVTELYLEGNHLTAVPRELSALRHLTLIDLSNNSISMLTNYTFSNMSHLSTLILSYNRLRCIPVHAFNGLRSLRVLTLHGNDISSVPEGSFNDLTSLSHLALGTNPLHCDCSLRWLSEWVKAGYKEPGIARCSSPEPMADRLLLTTPTHRFQCKGPVDINIVAKCNACLSSPCKNNGTCTQDPVELYRCACPYSYKGKDCTVPINTCIQNPCQHGGTCHLSDSHKDGFSCSCPLGFEGQRCEINPDDCEDNDCENNATCVDGINNYVCICPPNYTGELCDEVIDHCVPELNLCQHEAKCIPLDKGFSCECVPGYSGKLCETDNDDCVAHKCRHGAQCVDTINGYTCTCPQGFSGPFCEHPPPMVLLQTSPCDQYECQNGAQCIVVQQEPTCRCPPGFAGPRCEKLITVNFVGKDSYVELASAKVRPQANISLQVATDKDNGILLYKGDNDPLALELYQGHVRLVYDSLSSPPTTVYSVETVNDGQFHSVELVTLNQTLNLVVDKGTPKSLGKLQKQPAVGINSPLYLGGIPTSTGLSALRQGTDRPLGGFHGCIHEVRINNELQDFKALPPQSLGVSPGCKSCTVCKHGLCRSVEKDSVVCECRPGWTGPLCDQEARDPCLGHRCHHGKCVATGTSYMCKCAEGYGGDLCDNKNDSANACSAFKCHHGQCHISDQGEPYCLCQPGFSGEHCQQENPCLGQVVREVIRRQKGYASCATASKVPIMECRGGCGPQCCQPTRSKRRKYVFQCTDGSSFVEEVERHLECGCLACS
B1 was tested, and the “levels of skeletal CD31hiEMCNhi endothelium in vivo” value [1] was “increased levels; also recorded: induces production”, the brain ultrastructure [2] was “no changes” and the “bone loss after onset of OVX-induced osteopenia” value ([3]; IV twice weekly initiated eight weeks after OVX) was “significantly reversed bone loss; also recorded: therapeutic effects”. For the same molecule, the cortical thickness [3, 7] was “increased”, the “trabecular BV/TV” value [3, 7] was “increased” and the CD31hiEMCNhi endothelial cells ([3]; treatment initiated eight weeks after OVX, femur) was “significantly increased”. The “OVX-induced bone loss (micro-CT)” value ([4]; IV twice weekly initiated two weeks after OVX) was “significantly countered OVX-induced bone loss; also recorded: comparable to the effects of PTH treatment; also recorded: preventive effects”, the “endosteal CD31hiEMCNhi endothelium after OVX” value ([4]; L3 vertebrae) was “reversed the attenuation” and the endosteal bone formation ([4]; L3 vertebrae) was “rescued”. The “amounts of CD31hiEMCNhi vasculature in vivo” value ([4]; treatment for six weeks in vivo) was “increase amounts”, the cortical thickness [4, 8] was “increased” and the “trabecular BV/TV” value [4, 8] was “increased”. The “osteoblast activation / differentiation (ALP activity)” value [5] was “did not enhance osteoblast activation; also recorded: does not directly regulate osteoblast differentiation or activity” and the proliferation [6] was “modestly increased the proliferation”.
